Reference: PMC8189435, “Timer-based proteomic profiling of the ubiquitin-proteasome system reveals a substrate receptor of the GID ubiquitin ligase” (Molecular Cell, 2021)

Target: T1, Gid1-tFT (chromosomally tagged Gid1-mCherry-sfGFP) (S. cerevisiae, UniProt P53076 1-958)
T1 construct: Gid1, subunit of the GID ubiquitin ligase complex, S. cerevisiae; endogenous locus tagged with mCherry-sfGFP; It was precipitated with anti-GFP antibodies from lysate, so other GID subunits are likely present with it; source: S. cerevisiae, chromosomally tagged (strain YMaM1083; YLZY0091 for gid5Δ), in lysate; not shown: mCherry-sfGFP timer (tFT), C-terminal, kept
T1 sequence (looked up): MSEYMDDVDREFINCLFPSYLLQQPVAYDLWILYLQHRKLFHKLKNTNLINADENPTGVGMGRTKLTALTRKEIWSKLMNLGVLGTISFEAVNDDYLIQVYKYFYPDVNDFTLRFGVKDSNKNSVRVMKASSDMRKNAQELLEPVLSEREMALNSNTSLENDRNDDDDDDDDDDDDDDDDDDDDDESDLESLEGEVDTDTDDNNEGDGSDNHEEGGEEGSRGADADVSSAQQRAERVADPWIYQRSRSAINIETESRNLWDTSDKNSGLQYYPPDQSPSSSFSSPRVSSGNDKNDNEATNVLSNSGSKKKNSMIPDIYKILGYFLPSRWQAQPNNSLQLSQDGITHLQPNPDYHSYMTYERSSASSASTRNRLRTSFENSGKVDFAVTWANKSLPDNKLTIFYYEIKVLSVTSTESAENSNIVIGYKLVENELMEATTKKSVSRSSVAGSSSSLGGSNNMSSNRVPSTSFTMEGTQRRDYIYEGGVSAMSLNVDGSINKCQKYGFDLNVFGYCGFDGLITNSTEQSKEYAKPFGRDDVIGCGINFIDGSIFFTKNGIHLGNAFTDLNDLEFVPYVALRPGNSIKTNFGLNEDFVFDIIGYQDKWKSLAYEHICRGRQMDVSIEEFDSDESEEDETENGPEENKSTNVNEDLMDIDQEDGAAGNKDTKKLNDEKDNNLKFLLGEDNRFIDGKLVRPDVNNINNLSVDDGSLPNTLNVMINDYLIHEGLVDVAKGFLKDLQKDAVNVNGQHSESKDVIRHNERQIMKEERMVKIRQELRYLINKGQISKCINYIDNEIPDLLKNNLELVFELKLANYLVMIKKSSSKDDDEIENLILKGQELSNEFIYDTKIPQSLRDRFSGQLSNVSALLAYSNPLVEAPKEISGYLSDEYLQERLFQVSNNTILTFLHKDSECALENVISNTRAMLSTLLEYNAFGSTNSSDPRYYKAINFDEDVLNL
Experiment: co-IP; tFT-tagged bait precipitated with rabbit anti-GFP on Dynabeads from yeast lysates (log phase, SC medium lacking histidine, 2% glucose); IP buffer 50 mM Tris-HCl pH 7.5, 100 mM NaCl, 1% Triton X-100, 2 mM EDTA; 2 h at 4°C; HA-tagged prey detected by anti-HA blot; WT or gid5Δ cells
Details: partners not purified

B1: HA-Gid11 (Ylr149c/Gid11) (natural protein, S. cerevisiae, UniProt Q99296 1-730, looked up)
chain: MTIDGTGQSKEALQDERLNTGSDKVYQNYMMPALELYDAKVSINHWQLRDCIKPGSMNQSKLYYIYDHSIRVLDTDSSVLRSPVRRHNSIQPSNSGKNSTEKTSTKGSRTTGSYISKNLHVPSEKLVEFNFKPRCFTELNGLTVCGGLIGSDDKGFPSNWNRLAQDANISLPPPSQPINISKNISFPINSHYSNPNIWKGIVEFYNQETDTMMTFTLGQFINNCVTLYDRASMQFDLFACNNDGHLYQCDVSNRDVTLVKRYADLKFPLNNASLSHDGQTMVVSGDSNKFAVYNQNELTNQFSLHYDNHPSWGSSVNRVRRIPRFALPDESEYIENIYEAPNSDHGFYNSFSENDLQFATVFQNGTCAIYDIRNMATPMAEISSTRPHSHNGAFRVCRFSYGLDDLLFISEHQGRVHVVDTRNYVNHQVIVIPDKVNMEYINERKHNTNHNFTTNNNNENESNDSKNELQGADYRSLSRRRFSLPSMPNVTTEPWITMAQRIPKKYLEPQILPFPKVMDKISNESVLFSTKGSSSSDVAHPYKRRCSFRVRRVSTSAPTADYSNNNVNASLGTPAADSIATSSSNSAPQNLIDPLILSHQQASNDVFEDDEYYEAYNDVHSTYRVSSDYHGVSARAFESFLRPPSTPDLPSDDDNFAANSRNNRGTSNFLRRPVITTQESNEFSEENNISGIDWVEDRNGSSLIIGTDYGIMRWNINSWARRSFSSYDLC
notes: Gid11 (Ylr149c), S. cerevisiae, WD40/YVTN repeat-like domain protein; the last 4 residues are printed as 727-730, so the protein ends at residue 730; also called HA-YLR149C; source: S. cerevisiae, overexpressed from plasmid pRS413-GPDpr-HA-YLR149C, in lysate; not shown: HA, N-terminal, kept
B1 was tested, and the “relative amount of co-immunoprecipitated HA-Gid11, normalized to precipitated Gid1-tFT, in gid5Δ cells compared with the WT” value was 0.43 relative to WT.
